The results in this text go back to publication PMC4198130.

The target in experiment [1] is GST fusion of the VGLUT1 C-terminus, ΔWW/PAXA (rat). Briefly: pull-down; GST fusions of the VGLUT1 C-terminus on glutathione sepharose beads, incubated with detergent-solubilized (2% TX-100) rat brain extract, RT 60 min; bound proteins by immunoblot, band intensity normalised to VG1 (Figs. 3C,D and 4B).
In experiment [2] the target is GST fusion of the VGLUT1 C-terminus, ΔWW/PAXY (rat). The description is as above.
Experiment [3] has as its target GST fusion of the VGLUT1 C-terminus lacking the second PP domain (rat). The description is as above.
The target of experiment [4] is GST fusion of the VGLUT1 C-terminus, ΔSH3/1,2,3 (rat). The experiment is described as above.
Experiment [5] has as its target GST fusion of the VGLUT1 C-terminus lacking the first PP domain (rat). The description is as above.
The target in experiment [6] is GST fusion of the VGLUT1 C-terminus lacking both PP domains (rat). Described as above.
Experiment [7] concerns the target GST fusion of the SH3 domain of sorting nexin 9 (Panomics) (human) (UniProt Q9Y5X1). Briefly: pull-down; GST fusions of SH3 or WW domains on glutathione sepharose beads, incubated with detergent-solubilized (2% TX-100) rat brain extract, RT 60 min; bound VGLUT1 by immunoblot, band intensity normalised to lysate.
The target in experiment [8] is GST fusion of the VGLUT1 C-terminus, SS/DD (rat) (UniProt Q62634). Briefly: pull-down; 400 µg GST fusions of the VGLUT1 C-terminus on glutathione sepharose beads, rat brain extract in 100 mM Tris-HCl pH 7.5, 150 mM NaCl, 1 mM EGTA, 1% TX-100, 4°C 2 h; immunoblot (Fig. 6).
In experiment [9] the target is GST fusion of the VGLUT1 C-terminus, SS/AA (rat) (UniProt Q62634). Described as above.
Experiment [10] concerns the target GST fusion of the VGLUT1 C-terminus lacking the first PP domain (rat). Briefly: pull-down; GST fusions of the VGLUT1 C-terminus on glutathione sepharose beads, incubated with extracts of COS7 cells transfected with myc-Lyn (2% TX-100); detected with antibody to myc, band intensity normalised to VG1.
Experiment [11] deals with GST fusion of the VGLUT1 C-terminus lacking both PP domains (rat). The experiment is described as above.
The target in experiment [12] is GST fusion of the VGLUT1 C-terminus lacking the second PP domain (rat). The experiment is described as above.

Sequence of myc-tagged Lyn (P25911 whole entry): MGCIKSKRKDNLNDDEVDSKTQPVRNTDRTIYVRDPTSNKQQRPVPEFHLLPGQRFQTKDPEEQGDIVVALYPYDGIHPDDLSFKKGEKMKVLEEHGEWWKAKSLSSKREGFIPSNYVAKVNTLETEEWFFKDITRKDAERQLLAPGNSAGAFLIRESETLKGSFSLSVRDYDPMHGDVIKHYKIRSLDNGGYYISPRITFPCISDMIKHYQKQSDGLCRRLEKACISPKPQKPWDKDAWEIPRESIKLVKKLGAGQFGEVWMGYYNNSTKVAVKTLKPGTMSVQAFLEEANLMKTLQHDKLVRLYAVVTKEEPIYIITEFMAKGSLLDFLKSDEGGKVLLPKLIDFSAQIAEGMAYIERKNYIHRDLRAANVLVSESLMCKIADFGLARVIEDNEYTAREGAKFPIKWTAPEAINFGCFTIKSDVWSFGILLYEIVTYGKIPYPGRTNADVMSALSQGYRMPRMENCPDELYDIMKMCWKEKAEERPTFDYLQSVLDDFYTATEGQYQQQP
Sequence of Nedd4 from rat brain extract (Q62940 whole entry): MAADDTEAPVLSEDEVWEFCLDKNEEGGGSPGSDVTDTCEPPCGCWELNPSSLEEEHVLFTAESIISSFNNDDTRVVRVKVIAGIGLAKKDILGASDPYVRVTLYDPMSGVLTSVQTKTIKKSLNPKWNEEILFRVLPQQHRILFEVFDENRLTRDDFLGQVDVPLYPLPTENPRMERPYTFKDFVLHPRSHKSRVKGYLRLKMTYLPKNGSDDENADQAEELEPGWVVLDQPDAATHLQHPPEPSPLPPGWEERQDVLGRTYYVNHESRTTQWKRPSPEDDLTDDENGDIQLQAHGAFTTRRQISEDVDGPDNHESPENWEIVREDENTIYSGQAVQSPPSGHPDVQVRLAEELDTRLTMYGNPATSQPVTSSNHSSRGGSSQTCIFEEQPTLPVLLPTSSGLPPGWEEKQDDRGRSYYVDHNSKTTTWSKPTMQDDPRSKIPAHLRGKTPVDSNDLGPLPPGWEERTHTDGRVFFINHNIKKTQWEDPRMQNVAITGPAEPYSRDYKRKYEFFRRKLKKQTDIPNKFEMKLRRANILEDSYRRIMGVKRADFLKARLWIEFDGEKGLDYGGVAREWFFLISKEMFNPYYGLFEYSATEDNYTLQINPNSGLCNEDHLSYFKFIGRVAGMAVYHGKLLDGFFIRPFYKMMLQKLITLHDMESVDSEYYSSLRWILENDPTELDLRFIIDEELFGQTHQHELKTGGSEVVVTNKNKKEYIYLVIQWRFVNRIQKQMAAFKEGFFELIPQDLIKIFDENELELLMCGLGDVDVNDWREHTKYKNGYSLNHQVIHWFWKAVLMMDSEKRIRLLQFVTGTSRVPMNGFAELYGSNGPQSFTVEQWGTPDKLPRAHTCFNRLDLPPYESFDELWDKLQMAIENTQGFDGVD
Sequence of clathrin adaptor protein AP-2 from rat brain extract (P18484 whole entry, looked up): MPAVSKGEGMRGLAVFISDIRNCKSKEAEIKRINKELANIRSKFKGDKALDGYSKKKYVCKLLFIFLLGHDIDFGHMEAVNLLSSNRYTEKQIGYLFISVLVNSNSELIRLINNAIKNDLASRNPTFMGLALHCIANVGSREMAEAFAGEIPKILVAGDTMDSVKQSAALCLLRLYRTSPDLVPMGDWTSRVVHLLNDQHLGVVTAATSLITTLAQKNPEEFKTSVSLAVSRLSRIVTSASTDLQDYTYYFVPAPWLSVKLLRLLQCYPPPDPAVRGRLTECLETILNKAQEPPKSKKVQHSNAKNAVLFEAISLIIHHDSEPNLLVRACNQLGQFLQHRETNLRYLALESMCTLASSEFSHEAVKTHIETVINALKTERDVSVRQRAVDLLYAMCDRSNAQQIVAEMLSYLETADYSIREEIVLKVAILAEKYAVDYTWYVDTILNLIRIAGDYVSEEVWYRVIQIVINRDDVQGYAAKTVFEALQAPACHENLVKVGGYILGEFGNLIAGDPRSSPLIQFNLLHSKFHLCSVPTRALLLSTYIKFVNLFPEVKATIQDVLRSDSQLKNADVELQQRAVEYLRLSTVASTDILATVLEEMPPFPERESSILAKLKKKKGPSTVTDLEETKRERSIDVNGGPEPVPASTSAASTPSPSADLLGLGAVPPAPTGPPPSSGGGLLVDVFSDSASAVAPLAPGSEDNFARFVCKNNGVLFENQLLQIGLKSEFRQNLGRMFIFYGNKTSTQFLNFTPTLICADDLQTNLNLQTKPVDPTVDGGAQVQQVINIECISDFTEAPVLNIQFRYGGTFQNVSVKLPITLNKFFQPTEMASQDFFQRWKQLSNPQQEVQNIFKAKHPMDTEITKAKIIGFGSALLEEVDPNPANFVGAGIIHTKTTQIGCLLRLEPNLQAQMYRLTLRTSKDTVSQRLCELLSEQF
Sequence of GST fusion of the SH3 domain of sorting nexin 9 (Panomics) (human) (Q9Y5X1 1-62): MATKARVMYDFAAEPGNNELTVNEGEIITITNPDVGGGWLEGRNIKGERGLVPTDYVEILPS

In the case of “Atrophin Interacting Protein AIP4/Itch from rat brain extract (enzyme)”, the band intensity normalised to VG1 in experiment [1] came to 0.0669 a.u; in [2], 0.119 a.u; in [3], 0.822 a.u; in experiment [4], 0.99 a.u.

Substance “Nck from rat brain extract (natural protein)” yielded a band intensity normalised to VG1 in experiment [5] of 1.11 a.u.

Regarding “Nedd4 from rat brain extract (from UniProt Q62940 1-887) (enzyme)”, the band intensity normalised to VG1 in experiment [5] turned out to be 0.0459 a.u; in experiment [6], 0.0821 a.u; in experiment [3], 0.664 a.u.

In experiment [7], “VGLUT1 from rat brain extract (from UniProt Q62634 1-560) (natural protein)” yielded a band intensity normalised to lysate of 0.111 a.u.

On to “clathrin adaptor protein AP-2 from rat brain extract (from UniProt P18484 1-938) (complex)”, for which the band intensity (a.u.) in [8] is 1.76 a.u; in experiment [9], 0.674 a.u.

“myc-tagged Lyn (from UniProt P25911 1-512) (enzyme)”: the values for the band intensity normalised to VG1 in experiment [10], in [11] and in experiment [12] were 1.12 a.u, 0.0368 a.u and 0.0282 a.u, respectively.

With “ponsin/c-Cbl interacting protein CAP from rat brain extract (from UniProt P84109 1-35) (natural protein)”, the band intensity normalised to VG1 in [5] was 2.24 a.u; in [6] it was 0.225 a.u; in experiment [3], 0.062 a.u.
